Assay [1] has as its target T1, human MCAM expressed on CHO cells transfected with the full length human MCAM gene (human) (UniProt P43121).
T1 sequence: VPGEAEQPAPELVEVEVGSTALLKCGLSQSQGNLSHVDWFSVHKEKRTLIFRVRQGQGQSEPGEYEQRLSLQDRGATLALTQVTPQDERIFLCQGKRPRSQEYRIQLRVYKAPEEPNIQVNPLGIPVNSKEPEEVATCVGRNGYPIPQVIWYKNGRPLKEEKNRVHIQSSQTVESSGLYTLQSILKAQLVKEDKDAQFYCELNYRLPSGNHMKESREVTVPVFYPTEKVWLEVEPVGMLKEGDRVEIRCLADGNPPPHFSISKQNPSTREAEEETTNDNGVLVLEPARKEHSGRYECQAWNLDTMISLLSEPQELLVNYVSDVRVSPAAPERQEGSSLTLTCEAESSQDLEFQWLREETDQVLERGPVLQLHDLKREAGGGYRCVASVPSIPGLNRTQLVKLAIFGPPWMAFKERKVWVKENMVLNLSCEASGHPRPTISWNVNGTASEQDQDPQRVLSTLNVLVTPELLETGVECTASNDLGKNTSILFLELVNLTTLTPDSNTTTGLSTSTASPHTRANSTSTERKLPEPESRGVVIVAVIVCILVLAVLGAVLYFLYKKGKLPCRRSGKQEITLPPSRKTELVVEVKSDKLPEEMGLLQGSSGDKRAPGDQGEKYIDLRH
As to the kind of experiment: laminin/FACS assay, blocking of laminin 411 binding to hMCAM expressing CHO cells. Background: In flow cytometry, cells or beads pass a laser one at a time.

Assay [2] deals with T2, recombinant hMCAM-His (human) (UniProt P43121).
T2 sequence: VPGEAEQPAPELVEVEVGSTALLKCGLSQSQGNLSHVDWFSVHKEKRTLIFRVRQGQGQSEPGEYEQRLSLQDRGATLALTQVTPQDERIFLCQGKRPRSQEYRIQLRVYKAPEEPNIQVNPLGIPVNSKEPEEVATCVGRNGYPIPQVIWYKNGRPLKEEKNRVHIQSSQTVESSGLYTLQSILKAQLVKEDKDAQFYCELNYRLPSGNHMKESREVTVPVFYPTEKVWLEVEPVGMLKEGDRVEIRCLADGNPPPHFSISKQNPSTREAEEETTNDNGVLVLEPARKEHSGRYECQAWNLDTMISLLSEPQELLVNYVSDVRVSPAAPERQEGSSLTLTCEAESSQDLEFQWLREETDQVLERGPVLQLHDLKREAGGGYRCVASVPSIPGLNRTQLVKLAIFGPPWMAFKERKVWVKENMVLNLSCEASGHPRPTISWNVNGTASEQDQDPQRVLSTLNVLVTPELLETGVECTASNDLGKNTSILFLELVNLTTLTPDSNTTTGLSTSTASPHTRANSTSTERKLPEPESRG
Put plainly: competitive ELISA on hMCAM-His against biotinylated rodent or chimeric antibody. In general terms: ELISA stands for enzyme-linked immunosorbent assay.

In assay [3] the target is chimpanzee MCAM on circulating T cells (chimpanzee). As to the kind of experiment: FACS, chimpanzee whole blood in vitro.

Our source for the fold reduction in potency (laminin blocking) against the rodent parent, fold reduction in apparent affinity against the rodent parent and concentration required to saturate MCAM values is patent WO2017208210A1.

Substitutions are numbered along the chain they refer to.

B1: humanized 2120 antibody VH5VL3 (G-A N-deamidation mutant VH/conservative VL) (antibody, V domains shown)
VH: QVTLKESGPVLVKPTETLTLTCTVSGFSLTSNAVSWVRQPPGKALEWIAAISSGGTTYYNSAFKSRLTISRDTSKSQVVLTMTNMDPVDTATYYCARRYGYGWYFDFWGQGTLVTVSS
VL: DIQMTQSPSSLSASVGDRVTINCKASQNIYNSLAWYQQKPGKAPKVLIFNANSLQTGIPSRFSGSGSGTDFTLTISSLQPEDFATYYCQQFYSGYTFGQGTKLEIK
In the case of B1, the fold reduction in potency (laminin blocking) against the rodent parent in assay [1] is less than 2 x. For the same molecule, in assay [2], the fold reduction in apparent affinity against the rodent parent is less than 2 x.

B2: PRX003 (humanized anti-MCAM antibody, human IgG1 kappa isotype) (antibody, V domains shown)
VH: B1 VH with Q1E
VL: B1 VL
In assay [3], B2 registered a concentration required to saturate MCAM of 1 to 3 µg/mL.
